± gives the standard deviation.

Data on 72 sequences can be found in the supplement of paper PMC10567573.

This data set in a line: protein stability index of a GFP-peptide fusion (GPS, HEK-293T) (PSI 1-6); higher = more stable.
Setting [1] is: treatment: DMSO, c terminus: a fixed tail appended.
[2] abbreviates: treatment: MLN4924 1 uM, 8 h, c terminus: a fixed tail appended.
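Also: 24-mer peptide tiles fused after GFP, lentivirally expressed, FACS-sorted into six equal bins by GFP/DsRed ratio, decoded by Illumina sequencing, PSI is the read-weighted mean bin number.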

As for PQLSPGSGTPQAGTPSPSRSRDSN [RTN2], the protein stability index runs as follows: under setting [1], 5.2 ± 0.14; under setting [2], 5.27 ± 0.18. Taken in the same sequence, the figures for PQQQHHKAKRNRTCRPPSSSESSS [ANKRD17] were 4.86 ± 0.16 and 4.92 ± 0.29. Taken in the same sequence, the figures for PRAGKEESGVSVSNSQPTNESHSI [SLC29A1] were 5.33 ± 0.25 and 5.26 ± 0.27. For PRIVEMKKGSNGYGFYLRAGSEQK [PDZK1] the same measures were 3.53 ± 0.36 and 3.65 ± 0.54. PRPQSEESWDEEDKRNYPSLELDK [CHGB] gave a protein stability index under setting [1] of 5.52 ± 0.25 and a protein stability index under setting [2] of 5.44 ± 0.25.

Sequence PSDFFIGAVIEVFGHRFIILDTDE [EFHC1] showed a protein stability index under setting [1] of 2.32 ± 0.43 and a protein stability index under setting [2] of 2.31 ± 0.36.

As to PSKTYPAFLEPDETFIVPDSFLVA [SPSB1], the protein stability index is, setting by setting: under setting [1], 2.39 ± 0.33; under setting [2], 2.45 ± 0.15.

For PSLEDISCNTWPSMPSYSSCTVTT [TBX5], the protein stability index is 3.18 ± 0.21 under setting [1] and 3.41 ± 0.24 under setting [2]. For PSRKYISTKAIPEKYGAVREVILK [ZBED1] the same measures were 2.87 ± 0.18 and 2.92 ± 0.34.

Turning to PTPAKRRSSALWSEMLDITMKESL [NET1], the protein stability index is 2.71 ± 0.5 under setting [1] and 3.15 ± 0.48 under setting [2].

As to PTPTSLEVSSPPDTTEEVDHKPKL [PDZK1], the protein stability index came out at 5.51 ± 0.18 under setting [1] and 5.54 ± 0.38 under setting [2]. For PVCSALLDPVLQAPGTGPAQTELL [FANCE] the same measures were 4.2 ± 0.12 and 4.37 ± 0.12. For PVLGSSSGAGHGSGSGSGPGCGSV [SPAG8] the same measures were 4.8 ± 0.36 and 4.92 ± 0.49. Regarding PVPPPSYFATFYSCTPRMNRRMVG [FAM189A2], the protein stability index was determined as 2.43 ± 0.28 under setting [1] and 2.43 ± 0.33 under setting [2].

For the sequence PVTERQIEREHLIQLRRWQETRGE [TBC1D10A], the protein stability index runs as follows: under setting [1], 4.25 ± 0.14; under setting [2], 4.33 ± 0.18. Taken in the same sequence, the figures for PVVKALFGASAAGGLSPVTNLTVT [CDC25A] were 2.61 ± 0.24 and 2.65 ± 0.2. PYTRSIQILKDTKSITSAMNELQH [TPH1] displayed a protein stability index under setting [1] of 2.61 ± 0.22 and a protein stability index under setting [2] of 2.71 ± 0.16. Taken in the same sequence, the figures for QAQDEVEQERRLSEARLSQRDLSP [FCHSD1] were 5.46 ± 0.28 and 5.31 ± 0.24. For QARAELTAQHQRRLAAIAQEKDQE [FBF1] the same measures were 5.43 ± 0.23 and 5.2 ± 0.49. Taken in the same sequence, the figures for QAVSAPGILNRPPAPTATVPAPQP [ZNF207] were 4.76 ± 0.17 and 4.91 ± 0.17. With QDSPLDLTVRKSQSEPSEQDGVLD [LCOR], the protein stability index was determined as 5.42 ± 0.32 under setting [1] and 5.35 ± 0.37 under setting [2]. The sequence QELIETNQQLRNELQLEQSRAANQ [CEP70] showed a protein stability index under setting [1] of 5.122 ± 0.01 and a protein stability index under setting [2] of 5.05 ± 0.26. Taken in the same sequence, the figures for QEYFERHRWPPVWYLKEEDHYQRV [RHOBTB1] were 3.08 ± 0.24 and 3.08 ± 0.1. On to QFALTNGDPLNCHSYLSGYISLLL [NR2F2], for which the protein stability index was 2.57 ± 0.57 under setting [1] and 2.28 ± 0.3 under setting [2]. Consider QFRVIGPRHPIRALVGDEVELPCR [MOG], for which the protein stability index runs as follows: under setting [1], 3.63 ± 0.31; under setting [2], 3.64 ± 0.45.

Take QFSDEVEPATPEEGEPATQRQDPA [GAGE1]: the protein stability index turned out to be 5.6 ± 0.11 under setting [1] and 5.57 ± 0.096 under setting [2]. With QGDPKGEMAATPAGFAQLTHLLMG [HDAC6], the protein stability index is 3.1 ± 0.16 under setting [1] and 3.06 ± 0.14 under setting [2]. In the case of QGGSLPSEEKGHPQEESEESNVSM [CHGB], the protein stability index is 5.59 ± 0.24 under setting [1] and 5.53 ± 0.25 under setting [2]. Regarding QGPGGDEDDDEEDTDKLLNSASDP [PSD2], the protein stability index amounted to 5.59 ± 0.26 under setting [1] and 5.54 ± 0.21 under setting [2]. Taken in the same sequence, the figures for QIITSLVFHLPFYSSNQLHHFFCD [OR10K2] were 2.8 ± 0.094 and 3.02 ± 0.21. For QKEVLPSMRKIVATWMLEVCEEQK [CCND1] the same measures were 3.01 ± 0.27 and 3 ± 0.3. Under setting [1], QKIQFKRETASLKLLPHQPRIVEM [PDZK1] registered a protein stability index of 2.54 ± 0.39. Take QKTSRSSSIPCSGSLDGRELSRQV [PPEF2]: the protein stability index runs as follows: under setting [1], 4.32 ± 0.23; under setting [2], 4.48 ± 0.42. For QLGRALTAHLYSLLQTQHALGDAF [ARFIP2] the same measures were 3.25 ± 0.2 and 3.47 ± 0.57. Taken in the same sequence, the figures for QLKIRKSNQIPTEVRSKAEEVVSF [FUNDC2] were 3.9 ± 0.45 and 3.88 ± 0.25. Taken in the same sequence, the figures for QLQCSPAELQAELLHSQARLAELE [FBF1] were 3.88 ± 0.41 and 3.98 ± 0.26. As for QLRFQHSQDVSDCYLELFPAHLYF [PLEKHN1], the protein stability index is 2.32 ± 0.54 under setting [1] and 2.27 ± 0.28 under setting [2].

On to QLTEKLARVNENLARKIASRNEFD [SSNA1], for which the protein stability index amounted to 2.85 ± 0.18 under setting [1] and 3.24 ± 0.39 under setting [2]. For QMPKFDLGPLLSEPLVLYNQNLSN [MYOZ1] the same measures were 3.15 ± 0.1 and 3 ± 0.11. Taken in the same sequence, the figures for QPKKNNVMARTRLVVPNKGYSSLD [FAM219A] were 3.85 ± 0.3 and 4.07 ± 0.27. Taken in the same sequence, the figures for QPRGGVSSRIEQGEWGGRHPSWPW were 2.99 ± 0.44 and 3 ± 0.68. The sequence QQELETLPTTKMAQTNPTPGSLGP [CRYBA1] yielded a protein stability index under setting [1] of 5.15 ± 0.1 and a protein stability index under setting [2] of 5.09 ± 0.13. On to QQFRADPSTASLLLCPGGLDHKLN [TIAF1], for which the protein stability index runs as follows: under setting [1], 3.48 ± 0.28; under setting [2], 3.58 ± 0.34.

As for QRALHKYSLMKRQMMSATAQNREP [SNX8], the protein stability index is, setting by setting: under setting [1], 3.24 ± 0.29; under setting [2], 3.32 ± 0.18. Taken in the same sequence, the figures for QSFREQEEPSNKRVRPLARVTSLA [NET1] were 4.21 ± 0.17 and 4.23 ± 0.097.

Sequence QSSHYLQWILDKQDLLKERQKDLK [CCNC] showed a protein stability index under setting [1] of 2.87 ± 0.36 and a protein stability index under setting [2] of 3.16 ± 0.27.

Turning to QTPILEGRSGPGCAVLDDSIYLVG [KLHL14], the protein stability index under setting [1] came to 2.7 ± 0.23 and the protein stability index under setting [2] came out at 2.63 ± 0.28. Taken in the same sequence, the figures for QVLNETRNQYEALVETNRREVEQW [KRT33B] were 4.24 ± 0.43 and 4.5 ± 0.17. For QWWASVGMDDFLGVYSMPAGTKVF [TLE6] the same measures were 2.23 ± 0.82 and 2.26 ± 0.45.

RAGPDSAGIALYSHEDVCVFKCSV [CARM1]: the protein stability index reads like this: under setting [1], 2.35 ± 0.47; under setting [2], 2.06 ± 0.41. Taken in the same sequence, the figures for RALQEEERAAAQARRELQAEREAL [ZBED3] were 5.36 ± 0.19 and 5.45 ± 0.18. Consider RALQERLGQQQRDMRRDEEGSLCA [FBF1], for which the protein stability index by setting is: under setting [1], 4.95 ± 0.36; under setting [2], 5.03 ± 0.32. Taken in the same sequence, the figures for RAPGAGLGQDRQVPLWGQLLLFLV [EMD] were 2.49 ± 0.17 and 2.09 ± 0.37. Taken in the same sequence, the figures for RCYYYEDTISTIKSVAWEGGACPA [NCF4] were 2.31 ± 0.21 and 2.43 ± 0.24. Taken in the same sequence, the figures for RDEVAFHTAKCEKLQKEKEELERR [MTUS2] were 5.61 ± 0.17 and 5.44 ± 0.33.

RDRQQAPGLGQESKAPGSCDPGTD [TLE6] yielded a protein stability index under setting [1] of 5.45 ± 0.12 and a protein stability index under setting [2] of 5.46 ± 0.16. For REHCPENRERVVSLIEDLQRELEI [ZNF449] the same measures were 3.91 ± 0.21 and 4 ± 0.28. Take REIEELLAEAKYYLVQGLVEECQA [KCTD10]: the protein stability index by setting is: under setting [1], 2.02 ± 0.34; under setting [2], 2.16 ± 0.25. Taken in the same sequence, the figures for RELDAISTNEEEKEENEAESDVKH [PRIM1] were 5.57 ± 0.17 and 5.62 ± 0.24. For REQADSCREQLDIMNDLSNRVWSI [TRIM14] the same measures were 2.23 ± 0.11 and 2.28 ± 0.46. Consider RFGQTIQSFTLRGDHRSPASAQKF [NET1], for which the protein stability index reads like this: under setting [1], 3.14 ± 0.27; under setting [2], 3.27 ± 0.32.

RFPLDSAQDPDVGTNTVSFYTLSP [PCDHGC5]: the protein stability index reads like this: under setting [1], 3.68 ± 0.15; under setting [2], 3.88 ± 0.12. For RFVQAEGRRATLQRLVEALEENEL [TRADD] the same measures were 3.57 ± 0.39 and 3.62 ± 0.37. The sequence RGEGIQAPSFSSYLYFLFCPTLIY [SOAT2] had a protein stability index under setting [1] of 3.49 ± 0.45 and a protein stability index under setting [2] of 3.36 ± 0.69. Taken in the same sequence, the figures for RGFVFGGRYRDARMNDLHYLNLDT [KLHDC2] were 2.71 ± 0.33 and 2.59 ± 0.35. Turning to RGKLKKTEEELRRIQTQKEQAKEN [ZC2HC1C], the protein stability index came out at 5.31 ± 0.13 under setting [1] and 5.39 ± 0.13 under setting [2]. In the case of RHCPLPQATFWGLVTPRSWSCHT [SOAT2], the protein stability index stood at 2.55 ± 0.64 (treatment: DMSO, c terminus: native) and 2.44 ± 0.62 (treatment: MLN4924 1 uM, 8 h, c terminus: native).

For RIHVGKKYGDIPRGIFVVRGENVV [LSM1], the protein stability index by setting is: under setting [1], 2.37 ± 0.17; under setting [2], 2.24 ± 0.15. Taken in the same sequence, the figures for RIQIWFQNRRAKLKRSHRESQFLM [HESX1] were 2.43 ± 0.76 and 2.15 ± 0.67. Taken in the same sequence, the figures for RKSVPGPGNRTCTGTSKRYQLCRV [ADAMTSL2] were 2.91 ± 0.41 and 2.68 ± 0.093. Taken in the same sequence, the figures for RLAQVKRKILVLDLDETLIHSHHD [CTDNEP1] were 2.41 ± 0.73 and 2.58 ± 0.36. Regarding RLDYLNLKGARLTVEQGCQILDSL [FBXO39], the protein stability index under setting [1] was 3.25 ± 0.088 and the protein stability index under setting [2] is 3.54 ± 0.22.
